# Experimental data as given in PMC12496170.
# Target: Spike-Accum bioconjugate (Accum-bioconjugated Sp protein) (SARS-CoV-2) (UniProt P0DTC2)
# Test: cryo-EM structure
substance,measurement,value
Spike-Accum bioconjugate (Accum-bioconjugated Sp protein) (from UniProt P0DTC2 14-1213),stoichiometry N,3
